The test concerns the target S. aureus flotillin (FloA), fused to T25 or T18 fragments of an adenylate cyclase (S. aureus). Nature of the test: two-hybrid; bacterial two-hybrid in E. coli BTH101; FloA and T7SS membrane proteins fused C- and N-terminally with T18 and T25 fragments of adenylate cyclase; X-Gal plates (48 h, 30°C) and β-galactosidase activity in Miller Units; a 700 Miller Unit threshold defines positive and negative signals.

Our source for the β-galactosidase activity (two-hybrid signal) values is paper PMC5718613.

Some results are limits rather than exact numbers.

Chain of S. aureus flotillin (FloA), fused to T25 or T18 fragments of an adenylate cyclase (S. aureus) (A6QHB6 whole entry, the tested form may be a part): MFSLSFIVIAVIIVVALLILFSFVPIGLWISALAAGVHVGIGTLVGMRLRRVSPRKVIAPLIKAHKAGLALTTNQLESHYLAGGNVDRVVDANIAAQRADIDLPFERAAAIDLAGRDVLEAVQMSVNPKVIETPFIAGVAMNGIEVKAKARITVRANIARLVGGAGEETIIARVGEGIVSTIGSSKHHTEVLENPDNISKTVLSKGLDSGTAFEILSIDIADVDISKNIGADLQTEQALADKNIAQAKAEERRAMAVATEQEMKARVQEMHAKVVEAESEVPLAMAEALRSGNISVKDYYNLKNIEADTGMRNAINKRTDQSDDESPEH

Take “EssB, fused to T25 or T18 fragments of an adenylate cyclase (from UniProt Q2G185 1-444) (natural protein)”: the β-galactosidase activity (two-hybrid signal) was greater than 2000 Miller Units.
